According to patent US20040191815:

What was measured:
MafG homodimer [1] = target: MafG homodimer (UniProt O15525); assay: SPR; settings: pH 7.9; for Kd: 20 mM Hepes, 200 mM NaCl, 4 mM MgCl2, 1 mM EDTA, BSA
MafG homodimer [2] = target: MafG homodimer (UniProt O15525); assay: EMSA; settings: gel mobility shift assay comparison, probe details not given
[3] = 5' thiol on anchor strand (immobilized)

Chain of MafG homodimer (O15525 whole entry): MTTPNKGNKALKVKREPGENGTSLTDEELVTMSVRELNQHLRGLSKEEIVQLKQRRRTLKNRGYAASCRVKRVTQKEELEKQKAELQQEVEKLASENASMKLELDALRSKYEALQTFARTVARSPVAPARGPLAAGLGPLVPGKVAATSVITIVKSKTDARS

Sequence | Kd (MafG homodimer [1]; [3]) | Kd (MafG homodimer [2]; [3]) | Ka (MafG homodimer [1]; 5' thiol on anchor strand (immobilized), 10 mM Hepes, 300 mM NaCl, 4 mM Mg, 1 mM EDTA, ka 2.22e5 M-1s-1, kd 8.80e-4 s-1, Example 1 sequence printed only in figure) | Kd (MafG homodimer [1]; 5' thiol on anchor strand (immobilized), SPR imaging) | Kd (MafG homodimer [1]; 5' thiol on anchor strand (immobilized) [variable site 22-34 (TGCTGATTCAGCC), 5' thiol linker at 1 left out], listing SEQ 7 has 14 nt, Table 2 prints 13 nt) | Kd (MafG homodimer [2]; 5' thiol on anchor strand (immobilized) [variable site 22-34 (TGCTGATTCAGCC), 5' thiol linker at 1 left out])
TTTTTTTTTTTTTTTCGGAATAGTTGACTCAGCATTACTC (double strand) [hNQO1m] | 8.58 nM | 273 nM |  |  |  | 
TTTTTTTTTTTTTTTCGGAATTGCTGACTCAGCATTACTC (double strand) [MARE 25] |  | 249 nM | 2.52e+08 M⁻¹ | 2.5 nM |  | 
TTTTTTTTTTTTTTTCGGAATTGCTGATTCAGCCTTACTC (double strand) [hOPSIN] |  |  |  |  | 7.67 nM | 252 nM
